{"source": "the supplement of paper PMC10567573", "parents": {"B1": {"name": "CDKN1A (parent)", "chain": "GRKRRQTSMTDFYHSKRRLIFSKR"}}, "data": [{"variants_of": "B1", "experiment": "protein stability index of a GFP-peptide fusion (GPS, HEK-293T) (PSI 1-6); higher = more stable", "settings": "c terminus: a fixed tail appended", "values": [{"variant": "S22Q", "protein stability index": 3.09}, {"variant": "S22R", "protein stability index": 2.79}, {"variant": "S22C", "protein stability index": 2.35}, {"variant": "R18P", "protein stability index": 2.11}, {"variant": "R18K", "protein stability index": 2.64}, {"variant": "R18H", "protein stability index": 2.15}, {"variant": "R18A", "protein stability index": 3.35}, {"variant": "S8H", "protein stability index": 4.01}, {"variant": "S8C", "protein stability index": 3.59}, {"variant": "S8L", "protein stability index": 3.4}, {"variant": "S8F", "protein stability index": 3.4}, {"variant": "S8K", "protein stability index": 3.4}, {"variant": "R5Y", "protein stability index": 3.17}, {"variant": "R5G", "protein stability index": 2.4}, {"variant": "R5L", "protein stability index": 3.53}, {"variant": "R5K", "protein stability index": 2.57}, {"variant": "G1N", "protein stability index": 2.55}, {"variant": "G1M", "protein stability index": 2.88}, {"variant": "G1S", "protein stability index": 3.84}, {"variant": "G1P", "protein stability index": 3.63}, {"variant": "G1V", "protein stability index": 2.06}, {"variant": "G1T", "protein stability index": 2.06}, {"variant": "G1F", "protein stability index": 2.85}, {"variant": "G1H", "protein stability index": 3.16}, {"variant": "G1R", "protein stability index": 3.87}, {"variant": "G1Q", "protein stability index": 3.03}, {"variant": "R4P", "protein stability index": 3.12}, {"variant": "R4K", "protein stability index": 3.46}, {"variant": "R4E", "protein stability index": 3.62}, {"variant": "R4H", "protein stability index": 2.98}, {"variant": "R4W", "protein stability index": 3.56}, {"variant": "R4S", "protein stability index": 2.85}, {"variant": "F12Y", "protein stability index": 2.17}, {"variant": "F12P", "protein stability index": 3.34}, {"variant": "F12H", "protein stability index": 1.61}, {"variant": "F12S", "protein stability index": 2.42}, {"variant": "F12R", "protein stability index": 2.73}, {"variant": "F12E", "protein stability index": 3.15}, {"variant": "M9P", "protein stability index": 2.69}, {"variant": "M9N", "protein stability index": 3.29}, {"variant": "M9L", "protein stability index": 2.98}, {"variant": "M9I", "protein stability index": 3.23}, {"variant": "M9G", "protein stability index": 3.98}, {"variant": "M9A", "protein stability index": 2.66}, {"variant": "M9E", "protein stability index": 2.27}, {"variant": "T10F", "protein stability index": 3.46}, {"variant": "T10R", "protein stability index": 2.39}, {"variant": "T10L", "protein stability index": 2.45}, {"variant": "T10K", "protein stability index": 2.52}, {"variant": "T10Y", "protein stability index": 2.53}, {"variant": "R17G", "protein stability index": 2.04}, {"variant": "R17A", "protein stability index": 2.13}, {"variant": "R17K", "protein stability index": 3.87}, {"variant": "R17D", "protein stability index": 3.57}, {"variant": "R17F", "protein stability index": 2.19}, {"variant": "Q6H", "protein stability index": 3.62}, {"variant": "Q6E", "protein stability index": 2.73}, {"variant": "Q6C", "protein stability index": 3.21}, {"variant": "Q6M", "protein stability index": 2.04}, {"variant": "Q6K", "protein stability index": 2.55}, {"variant": "Q6W", "protein stability index": 2.47}, {"variant": "Q6Y", "protein stability index": 2.67}, {"variant": "Q6V", "protein stability index": 2.38}, {"variant": "T7W", "protein stability index": 2.36}, {"variant": "T7Q", "protein stability index": 2.12}, {"variant": "T7A", "protein stability index": 1.97}, {"variant": "T7N", "protein stability index": 2.48}, {"variant": "T7H", "protein stability index": 2.67}, {"variant": "K3E", "protein stability index": 2.19}, {"variant": "K3D", "protein stability index": 3.2}, {"variant": "K3S", "protein stability index": 3.96}, {"variant": "K3M", "protein stability index": 2.76}, {"variant": "K3A", "protein stability index": 3.12}, {"variant": "K3W", "protein stability index": 2.56}, {"variant": "K3N", "protein stability index": 2.73}, {"variant": "S15C", "protein stability index": 2.1}, {"variant": "S15L", "protein stability index": 1.78}, {"variant": "S15N", "protein stability index": 3.16}, {"variant": "K16V", "protein stability index": 3.12}, {"variant": "K16Q", "protein stability index": 2.83}, {"variant": "K16G", "protein stability index": 2.62}, {"variant": "K16T", "protein stability index": 4.09}, {"variant": "K16E", "protein stability index": 3.76}, {"variant": "K16P", "protein stability index": 2.07}, {"variant": "K16A", "protein stability index": 3.51}, {"variant": "K23Y", "protein stability index": 2.74}, {"variant": "K23L", "protein stability index": 1.96}, {"variant": "K23N", "protein stability index": 2.3}, {"variant": "K23D", "protein stability index": 2.95}, {"variant": "K23T", "protein stability index": 3.3}, {"variant": "K23F", "protein stability index": 3.02}, {"variant": "K23S", "protein stability index": 2.78}, {"variant": "K23A", "protein stability index": 3.19}, {"variant": "D11V", "protein stability index": 2.44}, {"variant": "D11K", "protein stability index": 2.77}, {"variant": "D11I", "protein stability index": 2.12}, {"variant": "D11P", "protein stability index": 3.34}, {"variant": "D11N", "protein stability index": 2.4}, {"variant": "D11R", "protein stability index": 3.33}, {"variant": "D11Q", "protein stability index": 2.89}, {"variant": "I20K", "protein stability index": 2.99}, {"variant": "I20T", "protein stability index": 2.86}, {"variant": "I20R", "protein stability index": 2.15}, {"variant": "H14M", "protein stability index": 3.3}, {"variant": "H14S", "protein stability index": 2.34}, {"variant": "H14P", "protein stability index": 4.57}, {"variant": "H14F", "protein stability index": 2.96}, {"variant": "H14I", "protein stability index": 2.72}, {"variant": "H14W", "protein stability index": 2.08}, {"variant": "H14Q", "protein stability index": 3.39}, {"variant": "R2C", "protein stability index": 3.93}, {"variant": "R2N", "protein stability index": 2.74}, {"variant": "R2W", "protein stability index": 2.53}, {"variant": "R2K", "protein stability index": 3.08}, {"variant": "R2H", "protein stability index": 2.33}, {"variant": "R2E", "protein stability index": 4.5}, {"variant": "R2G", "protein stability index": 3.19}, {"variant": "R2Y", "protein stability index": 2.22}, {"variant": "L19F", "protein stability index": 2.88}, {"variant": "L19Y", "protein stability index": 3.91}, {"variant": "L19P", "protein stability index": 2.14}, {"variant": "L19K", "protein stability index": 3.86}, {"variant": "L19H", "protein stability index": 3.78}, {"variant": "L19Q", "protein stability index": 3.85}, {"variant": "L19N", "protein stability index": 3}]}]}
